# Results from the DeepSol protein solubility set.
# Assay: soluble on expression in E. coli; label from the status in PepcDB or PDB records
row,Sequence,soluble on expression in E. coli
1,MAHHHHHHMPTNAAQALEKLVPGRLLQLADNGTPTIVTPLGNEGSLNALIHAYKGKGYLPYFTHAVKAAQRSLVNELRAAGVEVPNGAEASHLEGVCGVHCRDEASCSHIIPDEHITATLYGEDTDDTRMIVACDPIQTKLRDDCVECFPRVNKVSGWEELVVRVHLFYPNTVPCMSVQDRRARLVTQKQFVPKNARTLQGYHVFHYAKRGSSVRTPHCESMFPYTPKTTESKGFTRENRCTAITVESVFVRDPARQQRPFYAEDAGQARVYFSYLRVDAFVTDDELVEHFPLESMDVAAMPAFTDNRYVEKYHVLVRLYLLAHDQGWTATQPHGCPHPLGDRVGLPVLFRSCATEVIVPDACSHDSQLLLRQRLLPDVEMQVTRFCFRRIVSEVLRQRVVAAAADTPECCIPVVCYMPYSDRVPVFTDKQVGVLARLYPHLGIRRPTSRREWADLSRTLYQHCISLFDILAAVGVPLRDAHGAVIDTDAYVPYTADMADDYFLVIANRPLRDYTCVTNQRWLCEQLLLPDHRPPISARAFAAWVRYWNAMAQLKHELEKQVTLDTVSAHLGLRLPAGKTGQRAACLVNGLVTDAKGGLIFPKLGGRRFRDREHVGALLPGAPVLYSFWVDGKLQFTYVRMPMRFVRGLPLKQVNGQRPVQSVIAAGGAPANRGDGTQRGGGQVGEERRANVAIHA,not soluble
2,MAHHHHHHMQDSVLLSEAFDASHRPWPNRPERKKGVSPSGRDFNMTLYRMKGCPYCERVEWLLRYHLVPFEIVEVGPLTTKGFPDQRFVQVPQIGLEAVADPNNPHAAEKSVAYVADSQHIIAAISAPLGFTKQLSDPRIMETRKWMMERFQAAGFLAINSTWRDAYTTYPHVTPSHYYYQNPIFHVVGATALYALAKYKVAPRFAAEESATSGFPSMENSLQRDPSAWLAAELSGFATRLSGGCHQLHGGKEPDIADVEMYGLTRIIDAHPRLRSALHEGPLKEWCAAMEAALQKRTHVTKK,not soluble
3,MAHHHHHHMQLMRAVTLKGFGDTDMLQISRIPKAVITRGRDILIKVSAAGVNRADAAQRKGHYLPPKGSSEVLGLEVSGIVEEVGVDVKDFKEGDKVMALLPGGGYAEYAVAHEGSVMHIPQGYSFIEAAAIPEAFLTAWQALKYHGDCCKGQKVLIHAGASGVGTAAAQLVEKYFQATALTTSSESKVEVCKNFASINFTRTPDETGMCFSPKVKRLLGEGAINLVLDSVFGGSYISEDAAVLAKDGRIVVLAFMGGATVHLNCLPLLRQRAHVMFSKLRCQSDDYKQNLVDTFEEAVIPYMNERLIVPVANKTYPLEEVAQAHMRLDDSKAWGKIVLTFNSHLSATSTNPPPTLTA,not soluble
4,MAHHHHHHMQPVKTAVGIRQGLRRCTQLPNKSFRILHVSPRQLTVSTGGDDILKEQRRLQQHGTCTRNNIFRHGVVCACNLLQGYTISIKTNSLIHHSLNFTGNTKTQASKDTHLSNKLYQTFRIIHLHPPIRINVHQWCIGIQNECMAVILHIHRPMFI,not soluble
5,MAHHHHHHMQQQPRPVVAQYAYIELLPLRYTGPAPPPAPACMDPTPDEQYRRGVAEKRAALKQKEARRQMSSSGSGMLASLKSAVSQAVMTMEKGAADVSTRTESQVRQLEYQYDCDRFNLHFHELAENGEVLLADYRCSAMHSGLRVNGHVQITPHYLCFLAETTSSIAKTTDAVMGVFVAARHPTSANDEPRNRPVGIKQVIALADIVSIQPSVVLESI,soluble
6,MAHHHHHHMQYNLIGSKINNHYVVDPYVSLLYLKRAYKFLRLLKDSGGEAIILGNKHREVHLEHYFGNVQRKETCSLNILTNVTKRYDLLICTDLPLFYPYMRNVLIPKMLVADGATFVKYKTFLHAFDYFIPLTGEKLDRHLHYVLARRYLSGGELR,not soluble
7,MAHHHHHHMRLHLPGRRDTRTASTGSSPVASLFLQKPIIFRKVAHGSASTILNVKRLELVLLETQSDQGKSEPDIQRLHWLTPHKLHQVHNDRITTATLQKNKVHSGYQFVLHIVQVSLEFLYRQKKAIILQLAERTLHERIFGGAKQLYHHQRAAGGGGK,not soluble
8,MAHHHHHHMRMRPFTASTAATPTAAGAAPASSMSSPAPLRKARESATGSAGSYFLGSSTFSVYEEMARQLREEGWRRKTEAAIATADFILGDRFRIPYTLLRVERMARSSWFGGTRWVNYFEGSHRLTLKAAMVQLMKEVDTHWATWLPESYAVGGDQLKKADERRALLEALAAAGDDDAVWIVKPSSGAKGRHILLLRASAVPEWLERLPESSKSMYVVQRYVDRPLLLSNGRKFDIRVWALLVSPYSIYAYTQVSCRTASEPYDLSDITNTHVHLTNHCLQKDAAHFGEYEEENEMWLPQLQSYLTSIGKPADLLETRVLPAIKELLVRTLLAVMPEMAVPATEAYKCFQLFGYDMILTEEADVRLLEINGSPGVAERFLTPLVRSMRELLGAGPKDGTGSTTTTRNCDNTSHEGFSENGSSSNSGCASPTSASSSCPGRRRTSHAFSAATSATGATRNWRLEDEGFVLLWRRGDAVPPGLVDVC,not soluble
9,MAHHHHHHMRNIVQKYLQRNSTKLFNRTSVFNLYKKCNFSGYKIYSDGLVHSEFSTELKTVNEVIKMPIYRILDTNGHLLDGHEAPFKDEEVLKIYKDMVEFSIWDEIFYGIQRQGRISFYIVNEGEEGLQFGMGKALSVDDHLYCQYRETGVLLSRGFTYTDILNQLFGTKYDEGKGRQMCICYTKKDLNIHTITTPLGSQLSHAAGCGYALKLKNQKAVAVTYCGDGSSSEGDFYAALNFASVRQSQTMFVCKNNLYAISTSIKDQYRGDGIAPRALALGIESIRVDGNDLFASYLATKKLRDICIQESKPVFIEFMSYRYGHHSTSDDSSLYRPKEENEAWRQEGVHPISRIFLYLKNKNLYSEKEDQEHRKSVKENVLKELKKYESVKRYNIVGGLFEDVYHEEDWNIKEQRENFEQFFKENKHNYDTSKFER,soluble
10,MAHHHHHHMRRSLVFPPCHLQEARLLQSQQLFGWYHQTRHFTSLVDRLSTGVARKLSSLTETHMMPLSEKHITEPRRPYPKRPSMQENLAERLAEQRRWRSRVVPQQIILSKDKLYIEFVWSAATLSAAAAREMRQQQNNEEENGDGCTQKRKGISCGSFANDGIIKSEKLMSHRTRFLAEFLRAYSPSTDVIGADALIYGRRGITITDVIPVGNYALRIVFSDGHSGGIYPYEYLFHLGQCKYTKMREYIRRLREKRKSRDPPKRVPSKYVPRGRNAAEGTPKRDKTDDCGHRVAAK,not soluble
11,MAHHHHHHMRRVIHGEVRHHNTDTNNTRIPWDFTMASYEEINNVILPKFPRSRRRSAIIPLLHLAQRQQGGYIPVTAMYKIARICEVPPMQVFETVTFYSMFNRQPVGKYHIQFCVTTPCMLCGCDELVHRTEAYLNVKMHGTTRDGLITLGEMQCLGACVNAPMLVVSDYSRPPHFSYDFVEDLTWDSVKELIENLREGRPFKVGTCREDRRWSEPAGGRTSIFMKEPPKPYCRDLDAKPVQPGASTGGAAKK,not soluble
12,MAHHHHHHMRTSRGFCMSMWDSPAFEHNPLSRYWKRMMKQNGETLTAQSIPRHIHGYIEASCPRTEGLVRWFPYKKEITVDGRYVPTISDAIYSYYFPRELNDDERVKYVAIKTGRSELEVAEEVFLMRKMKLFVAQLLRNKLRSRPLRMPEGVDYSGIERRYTLGISRVAQAMGMSMYGTQSYDPVIVYSPYCDIGDCIDCICTKQLRTATQYLLCEVAVHRGIARSRMTDVTSEPKEPLSHVEPCLFEFIKLRLAILALVAKQEHYVVDHLFDGGHRYGGCLIHLFPSPLDPEIIDHEVNHIELDLDLAQKWMKHYYDHYVAPRRSG,not soluble
13,MAHHHHHHMSATPSNVLLGLFDGYMSHKRDQLTSETKLGGTPTYFPPLSDADKAQIRRWTSCGVCGHAMSLLTQAYSPLPTAPASRPHHRMVYVFGCNSGYCSRQPTSSMVAFSVQVDQEDEQALAENAEEEDEDEVIETGPLLPSELPEAVLPPCYVYIDAEPSKEAVVPTDIERELIKMAEENARSTVTDEELQQLEQTVDLKDTKTDYYYEKFRSRVARAPNQVLRYYERTVAAAAATSASLRAKDVKPIFMNPDKVKAMVTIPACACCGSTQTAELQVMPTSLYYLHVSEYTALARADAAAMAAPAGTLAAASTHSNVVDTQSPVASPSASTTTCKASALSGAATGTEKAIPANVDDGCDFGTITVYVCAKDCAARQHGVVLRRETLCVEEAPTMRDEERAGKADAAKAGTDGATHKVTLRELLHGNGEGGEDMEDDDEGHIDDEAVSTA,soluble
